Measurements taken from PMC2959155 (Journal of immunology (Baltimore, Md. : 1950), 2008).

What was measured:
[1] = target: T1, recombinant His-tagged 6xEMPD (6 times repeated EMPD of mouse mIgE) (Mus musculus (mouse), membrane IgE …); test: ELISA
T1 chain: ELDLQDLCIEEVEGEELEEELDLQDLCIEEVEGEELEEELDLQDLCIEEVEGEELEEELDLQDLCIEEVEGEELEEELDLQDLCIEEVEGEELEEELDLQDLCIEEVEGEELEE

[2] = target: T1, recombinant His-tagged 6xEMPD (6 times …); test: SPR

B1: mAbA9, mouse monoclonal anti-mouse EMPD antibody of γ1 isotype (antibody, V domains shown)
VH: EVQLVESGGGLVQPGGSLRLSCATSGFTFTDYYMTWVRQPPGKALEWLGFIRNKANGYTTEYSASVKGRFTVSRDNSQSILYLQMNTLRAEDSATYYCASPIYYGSPSWLWTYWGQGTSVTVSS
VL: QIVLTQSPAIMAASLGQKVTMTCSASSSVSSSYLHWYQQKSGASPKPLIHRTSNLASGVPARFSGSGSGTSYSLTISSVEAEDDATYYCQQWSGYPLTFGAGTKLELK
% competition at 10-fold molar excess of 6xEMPD [1]: 43%
Kd [2]: 7.4 nM
